Results from PMC8869655, “Identification of the Kinase-Substrate Recognition Interface between MYPT1 and Rho-Kinase” (Biomolecules, 2022).
Numbering of substitutions follows the chain as printed.

B1: MYPT1-684–868 aa: GST-fused rat MYPT1 fragment 684–868 aa containing DMs and four phosphorylation sites (protein)
chain: KARSRQARQSRRSTQGVTLTDLQEAEKTIGRSRSTRTREQENEEKDKEEKEKQDKEKQEEKKESEVSREDEYKQKYSRTYDETYARYRPVSTSSSSTPSSSSLSTLGSSLYASSQLNRPNSLVGITSAYSRGLTKDNEREGEKKEEEKEGEDKSQPKSIRERRRPREKRRSTGVSFWTQDSDENE
modifications: left off: GST, end not stated, kept
notes: GST-fused rat MYPT1 fragment 684–868 aa containing DMs and four phosphorylation sites
B2: MYPT1-684–868 aa-4A: GST-fused rat MYPT1 fragment 684–868 aa with the four phosphorylation sites replaced with Ala (protein)
chain: B1 chain with S13A, T14A, S171A, T172A
modifications: left off: GST, end not stated, kept
notes: GST-fused rat MYPT1 fragment 684–868 aa with the four phosphorylation sites replaced with Ala
B3: MYPT1-655-715 aa: GST-fused MYPT1 fragment 655–715 aa (protein, UniProt Q10728 655-715, looked up, fragment)
chain: GTLSSTSEVRERRRSYLTPVRDEESESQRKARSRQARQSRRSTQGVTLTDLQEAEKTIGRS
modifications: also: GST fusion
notes: GST-fused MYPT1 fragment 655–715 aa

Columns and labels:
[1] = test system: phosphorylation of GFP-MYPT1 at Thr855 in COS7 cells; test: Phosphorylation of GFP-MYPT1 in COS7 cells; assay type: cell-based; details: GST-MYPT1 fragment coexpressed with full-length GFP-MYPT1 in COS7 cells, 24 h, immunoblot anti-MYPT1-pT855 normalized by GFP-MYPT1
Protocol: COS7 cells were seeded on a 6-well dish at a density of 1.8 × 10^5 cells/well in DMEM with 10% fetal bovine serum and cultured overnight. The cells were transfected with plasmids using LIPOFECTAMINE 2000^TM reagent, according to the manufacture’s protocol. After 24 h, the cells were washed twice with PBS, lysed in SDS–PAGE sample buffer and, subjected to immunoblot analysis using the indicated antibodies. The signals were visualized using HRP-conjugated secondary antibody and ECL prime detecting reagent (Cytiva, Marlborough, MA, USA) by X-lay film or imaging analyzer LAS 4010 (Cytiva, Marlborough, MA, USA). Signal intensities of phospho-GFP-MYPT1 and GFP-MYPT1 were analyzed using Fiji software and quantified from standard curves. The phospho-GFP-MYPT1 levels were normalized by GFP-MYPT1 levels.
Figure 3 Inhibition of MYPT1 phosphorylation by the Rho-kinase-binding fragment of MYPT1. […] The cell lysates were analyzed by immunoblot analysis using anti-MYPT1-pT855 (top panel), anti-GFP (middle), or anti-GST (bottom) antibodies. The phospho-GFP-MYPT1 levels were quantified and normalized by GFP-MYPT1 levels. […] The percentages of cells with stress fibers throughout the cell (SF(++)), cells with stress fibers partly in the cell (SF(+)), and cells without stress fibers (SF(–)) were analyzed. […]

[2] = molecular target: T1, GST-Rho-kinase-cat-L (bovine, residues 6–553) (Bos taurus, UniProt Q28021); test: In vitro kinase assay, Rho-kinase-cat-L activity; assay type: biochemical; details: S6 rsk substrate peptide as substrate, 50 μM γ-[32P]ATP, 30 °C, inhibitor at the indicated concentrations, scintillation counting, N = 3
T1 construct: GST-Rho-kinase-cat-L (bovine, residues 6–553); made in house; host or cells: Sf9 cells (baculovirus)
Protocol: (§1) The kinase reactions were performed in 50 μL of a reaction mixture (25 mM Tris-HCl, pH 7.5, 1 mM EDTA, 1 mM EGTA, 1 mM DTT, 5 mM MgCl2, and 50 μM γ-[^32P]ATP [1–20 GBq/mmol]), GST-Rho-kinase-cat-L or other kinases (1–10 nM), and substrates for 10–20 min at 30 °C. The reaction mixtures were applied to cation-exchange membranes and washed with 75 mM phosphoric acid three times, which was followed by scintillation counting.
Figure 4 Direct inhibition of Rho-kinase activity in vitro. (A) In vitro phosphorylation of S6 rsk substrate peptide by Rho-kinase. GST-Rho-kinase-cat-L or GST-ROCK1-cat-L activity was examined using the S6 rsk substrate peptide as a substrate in the presence of γ-[^32P]ATP. GST-MYPT1-684–868 aa-WT or -4A was added at the indicated concentrations. The reaction mixtures were applied onto cation-exchange membranes, followed by scintillation counting. N = 3. (B) Effects of the deletion of DMs on the inhibition of Rho-kinase activity in vitro. GST-Rho-kinase-cat-L activity was examined using the S6 rsk substrate peptide as a substrate in the presence of γ-[^32P]ATP. GST-MYPT1-684–868-4A with or without DMs was added at the indicated concentrations. The reaction mixtures were applied onto cation-exchange membranes, followed by scintillation counting. N = 3. The deletion of DM1 or DM2 moderately weakened the inhibitory effect and the deletion of both DM1 and DM2 completely abrogated the inhibitory effects of the MYPT1 fragment on the Rho-kinase activity. (C) Sequences of the DMs and phosphorylation sites of MYPT1. The sequences of MYPT1 683–715 aa and 836-860 aa and synthetic peptides are shown. Basic (blue), acidic (red), and aliphatic (green) amino acids within DMs are indicated. Phosphorylation sites are replaced by Ala in pseudosubstrate (PS) peptides. (D) Inhibition of Rho-kinase activity by PS2 + DM2 synthetic peptide. GST-Rho-kinase-cat-L activity was examined using the S6 rsk substrate peptide as a substrate in the presence of γ-[^32P]ATP. Synthetic peptides were added at the indicated concentrations. The reaction mixtures were applied onto cation-exchange membranes, followed by scintillation counting. N = 3. (E) Inhibition of Rho-kinase activity by PS1 + DM3 synthetic peptide. GST-Rho-kinase-cat-L activity was examined using the S6 rsk substrate peptide as a substrate in the presence of γ-[^32P]ATP. Synthetic peptides were added at the indicated concentrations. The reaction mixtures were applied onto cation-exchange membranes, followed by scintillation counting. N = 3.

NIH3T3 cells = test: Actin stress fiber formation in NIH3T3 cells; assay type: cell-based; details: GST-MYPT1 fragment expressed in NIH3T3 cells, 24 h, phalloidin staining, N = 4
Protocol: NIH3T3 cells were seeded on polylysine-coated 13-mm coverslips at a density of 4 × 10^4 cells/well in a 6-well dish and cultured in DMEM with 10% calf serum overnight. The cells were transfected with plasmid using LIPOFECTAMINE LTX reagent (Thermo Fisher Scientific, Waltham, MA, USA), according to the manufacture’s protocol. After 24 h, the cells were incubated in fresh DMEM containing 10% calf serum for 20 min, fixed with 3.7% formaldehyde in PBS for 10 min and then treated with PBS containing 0.2% Triton X-100 for 10 min. The fixed cells were blocked with 1% bovine serum albumin for 30 min and stained with the indicated antibodies. Cover slips were mounted with Fluoromount (Diagnostic Biosystems, Pleasanton, CA, USA) and the fluorescence was examined using a confocal laser scanning microscope LSM 780 and LSM5 PASCAL built around an Axio Observer Z1 or Axiovert 200M under the control of LSM software (Carl Zeiss, Oberkochen, Germany). Images were processed using ImageJ or Photoshop (Adobe, San Jose, CA, USA).
Figure 3 Inhibition of MYPT1 phosphorylation by the Rho-kinase-binding fragment of MYPT1. (A,B) Effect of the overexpression of Rho-kinase-binding MYPT1 fragments on GFP-MYPT1 phosphorylation in COS7 cells. Full-length GFP-MYPT1 and the GST-MYPT1 Rho-kinase binding fragment were transiently expressed in COS7 cells. The cell lysates were analyzed by immunoblot analysis using anti-MYPT1-pT855 (top panel), anti-GFP (middle), or anti-GST (bottom) antibodies. The phospho-GFP-MYPT1 levels were quantified and normalized by GFP-MYPT1 levels. Data represent means ± SD. **, p < 0.01, ***, p < 0.001 as compared with the control. (C) Effect of the overexpression of Rho-kinase-binding MYPT1 fragments on stress fiber formation in NIH3T3 cells. GST-MYPT1 fragments were expressed in NIH3T3 cells. The cells were fixed in formaldehyde, and immunostained with phalloidin and anti-GST antibody. […] The percentages of cells with stress fibers throughout the cell (SF(++)), cells with stress fibers partly in the cell (SF(+)), and cells without stress fibers (SF(–)) were analyzed. […]

[3] = test system: GST-MRCKβ-cat-L (human, residues 1–550); test: In vitro kinase assay, MRCKβ activity; assay type: biochemical; details: S6 rsk substrate peptide (40 µM) as substrate, γ-[32P]ATP, N=3, Figure S3B
Protocol: as §1
(§2) Supplem entary Figure S3. Inhibition of the kinase activity by the MYPT1-684-868 aa-4A […]
(§3) (A) In vitro phosphorylation of various substrates by Rho -kinase. S6 rsk substrate peptide (40 µM), GST-MYPT1 fragments (0.5 µM), GST-MLC (0.5 µM), or GST-Scrib-C (1235-1630 aa) (0.5 µM) was phosphorylated by GS T-Rho-kinase-cat-L with 1 µM GST or GST-MYPT1-684-868 aa-4A in the presence of γ-[32P]ATP. Data represent means ± SD. N=3. (B ) GS T-Rho-kinase-cat-L, GST-MRCKβ-cat-L, and GST-PKACα activities were examined using the S6 rsk substrate peptide (40 µM) as a substrate in the presence of γ-[32P]ATP and GST-MYPT1-684-868 aa-4A fragment at the indicated concentrations. The reaction mixtures were applied onto cation-exchange membranes, followed by scintillation counting. Data represent means ± SD. N=3.
(§4) (1 picture or pasted object on this page, not shown here)

[4] = molecular target: T1, GST-Rho-kinase-cat-L (bovine, residues 6–553); test: In vitro kinase assay, Rho-kinase-cat-L activity; assay type: biochemical; details: 1 µM inhibitory fragment, Figure S3A, N=3
GST-PKACα = test: In vitro kinase assay, PKA activity; assay type: biochemical; details: S6 rsk substrate peptide (40 µM) as substrate, γ-[32P]ATP, N=3, Figure S3B
Protocol: as §1, §2, §3, §4

T1 sequence (Q28021 6-553): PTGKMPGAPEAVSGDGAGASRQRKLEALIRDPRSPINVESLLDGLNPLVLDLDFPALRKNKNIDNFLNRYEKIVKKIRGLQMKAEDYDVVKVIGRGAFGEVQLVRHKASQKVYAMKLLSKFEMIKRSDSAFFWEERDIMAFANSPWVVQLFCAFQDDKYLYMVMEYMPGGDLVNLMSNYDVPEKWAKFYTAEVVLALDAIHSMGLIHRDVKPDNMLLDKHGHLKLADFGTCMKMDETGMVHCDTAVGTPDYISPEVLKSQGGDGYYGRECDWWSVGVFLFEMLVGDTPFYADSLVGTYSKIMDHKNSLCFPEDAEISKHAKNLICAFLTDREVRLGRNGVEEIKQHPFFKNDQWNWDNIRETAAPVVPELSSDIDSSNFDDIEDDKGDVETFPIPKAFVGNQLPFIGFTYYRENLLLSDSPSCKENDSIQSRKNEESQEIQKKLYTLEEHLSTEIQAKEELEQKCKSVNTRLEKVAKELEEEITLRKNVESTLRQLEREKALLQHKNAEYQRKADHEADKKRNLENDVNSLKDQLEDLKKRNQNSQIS

Molecule	Effect on phosphorylation of GFP-MYPT1 at Thr855 [1]	Inhibition of Rho-kinase-cat-L activity (in words) [2]	Effect on actin stress fiber formation (NIH3T3 cells)	Inhibition of MRCKβ activity (in words) [3]	Inhibition of phosphorylation of MLC by Rho-kinase ([4]; substrate GST-MLC (0.5 µM))	Inhibition of phosphorylation of MYPT1 by Rho-kinase ([4]; substrate GST-MYPT1 fragments (0.5 µM))	Inhibition of phosphorylation of Scrib by Rho-kinase ([4]; substrate GST-Scrib-C (1235-1630 aa) (0.5 µM))	Inhibition of PKA activity (in words) (GST-PKACα)
B1	strongly inhibited	inhibited the Rho-kinase-cat-L activity in a dose-dependent manner	reduced actin stress fibers	–	–	–	–	–
B2	–	inhibited the Rho-kinase-cat-L activity	reduced actin stress fibers	moderately inhibited	inhibited	much weaker	inhibited	did not inhibit
B3	decreased the phosphorylation of MYPT1	–	rather enhanced stress fiber formation	–	–	–	–	–
